{"source": "paper PMC7029138", "about": "“Modulation of Symbiotic Compatibility by Rhizobial Zinc Starvation Machinery”", "key": {"Zur (His6-Zur) [1]": {"molecular_target": "T1, Zur (His6-Zur) (Sinorhizobium fredii CCBAU45436, UniProt C3MDK7 1-131)", "T1 sequence": "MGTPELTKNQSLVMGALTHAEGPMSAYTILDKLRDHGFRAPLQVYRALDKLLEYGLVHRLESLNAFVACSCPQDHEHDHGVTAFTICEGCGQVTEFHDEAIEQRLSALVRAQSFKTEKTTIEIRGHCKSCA", "experiment": "EMSA; 200 uM ZnSO4; 0.33-2.64 uM Zur, oligomeric shift above 1.32 uM; 10 mM Tris pH 7.5, 50 mM KCl, 1 mM DTT, 1 ug poly(dI-dC), 200 uM ZnSO4, with or without 50 uM TPEN, ~50 fmol probe in 15 ul, 25 C 20 min; 5% native PAGE in TB at 4 C", "conditions": "protein: recombinant; tags: N-terminal His6 (pET-28a(+), BamHI/HindIII); chain copies: 2; label: 5' biotin on both strands; blunt"}, "Zur (His6-Zur) [2]": {"molecular_target": "T1, Zur (His6-Zur)", "experiment": "EMSA; 200 uM ZnSO4; 2.64 uM Zur; 10 mM Tris pH 7.5, 50 mM KCl, 1 mM DTT, 1 ug poly(dI-dC), 200 uM ZnSO4, with or without 50 uM TPEN, ~50 fmol probe in 15 ul, 25 C 20 min; 5% native PAGE in TB at 4 C", "conditions": "protein: recombinant; tags: N-terminal His6 (pET-28a(+), BamHI/HindIII); chain copies: 2; label: 5' biotin on both strands; blunt"}}, "data": [{"binder": "znuA promoter Zur box probe (dsDNA) DNA 1: GCGACTGCGTCGTGTAATGTTATTACATCAATTGCGTTATGCTATAACGTGTGCAATAGC DNA 2: GCTATTGCACACGTTATAGCATAACGCAATTGATGTAATAACATTACACGACGCAGTCGC", "values": [{"measurement": "binding result", "setting": "Zur (His6-Zur) [1]", "result": "binds"}]}, {"binder": "c06450 Zur box probe (dsDNA) DNA 1: CAGCTCCTTATAATGTTATAACGTAACGGCACTTGATA DNA 2: TATCAAGTGCCGTTACGTTATAACATTATAAGGAGCTG", "values": [{"measurement": "binding result", "setting": "Zur (His6-Zur) [2]", "result": "binds"}]}, {"binder": "e68370 Zur box probe (dsDNA) DNA 1: CAATCCCACGACGTAATGTTATAACATATCAGATAAGA DNA 2: TCTTATCTGATATGTTATAACATTACGTCGTGGGATTG", "values": [{"measurement": "binding result", "setting": "Zur (His6-Zur) [2]", "result": "binds"}]}, {"binder": "d65890 Zur box probe (dsDNA) DNA 1: TGATCGACGTGTGTAATGATATAACATATCGCATAAGT DNA 2: ACTTATGCGATATGTTATATCATTACACACGTCGATCA", "values": [{"measurement": "binding result", "setting": "Zur (His6-Zur) [2]", "result": "binds"}]}, {"binder": "a42610 Zur box probe (dsDNA) DNA 1: CAACATTCGCATGTTATGTTATAACATATCGCGTAATC DNA 2: GATTACGCGATATGTTATAACATAACATGCGAATGTTG", "values": [{"measurement": "binding result", "setting": "Zur (His6-Zur) [2]", "result": "binds"}]}]}
